We go through two substances from patent US7063950.

Assay [1] has as its target human neuronal calcium channel subunits α1B-1α2b (human).
Assay [2] shares this target. The source holds these as a separate data set.
For assay [3], the target named is human neuronal calcium channel subunits α1B-1β1-2 (human).
In assay [4] the target is human neuronal calcium channel subunits α1B-1β1-3 (human).
Assay [5] concerns the target human neuronal calcium channel α1B-1α2bβ1-2 (human).
Assay [6] deals with human neuronal calcium channel α1B-1α2bβ1-3 (human).
The target in assay [7] is human neuronal calcium channel α1B-2α2bβ1-2 (human).
In assay [8] the target is human neuronal calcium channel subunits α1B-1β1-2 (human). Description: saturation binding of 125I-ω-CgTx GVIA to transiently transfected HEK293 cells.
The target in assay [9] is human neuronal calcium channel subunits α1B-1β1-3 (human). The description is as above.
Assay [10] has as its target human neuronal calcium channel subunits α1B-2β1-2 (human). The assay is described as above.
The target in assay [11] is human neuronal calcium channel subunits α1B-2β1-3 (human). Described as above.
The target of assay [12] is human neuronal calcium channel α1B-1α2bβ1-2 (human). The assay is described as above.
For assay [13], the target named is human neuronal calcium channel α1B-1α2bβ1-3 (human). Described as above.
The target in assay [14] is human neuronal calcium channel α1B-2α2bβ1-2 (human). The assay is described as above.
The target in assay [15] is human neuronal calcium channel α1E-3α2bβ1-3 (human). The assay is described as follows: cell-based or functional assay.

As for “125I-ω-CgTx GVIA (from UniProt P01522 46-72) (peptide)”, the Bmax (sites/cell) was found to be 2260 sites/cell in assay [1]; 5760 sites/cell in [8]; 8730 sites/cell in assay [9]; 2130 sites/cell in [10]; 2940 sites/cell in [11]; 45300 sites/cell in assay [12]. Further, the Bmax (sites/cell) in assay [13] came to 91000 sites/cell; in assay [14], 19400 sites/cell. The Kd in [1] worked out at 0.0846 nM; in assay [8] it was 0.0179 nM; in assay [9] it was 0.0179 nM; in assay [10], 0.0164 nM; in [11] it was 0.0222 nM; in assay [12] it was 0.0549 nM. Also, the values for the Kd in assay [13] and in [14] were 0.0532 nM and 0.053 nM, respectively. Moreover, the fold increase of binding capacity against α1B-1 alone in assay [2] turned out to be 3 fold. Moreover, the fold increase of surface binding against α1B-1 alone stood at 8 fold in [3] and 10 fold in assay [4]. Further, the fold binding sites per cell against α1B-2α2bβ1-2 in assay [5] worked out at 2.5 fold. The fold surface receptor density against α1B-1β1-2 in assay [5] was found to be 8 fold. Moreover, in [6], the fold binding capacity against α1B-1α2bβ1-2 was 2 fold. Also, the fold binding sites per cell against α1B-2α2bβ1-3 in assay [6] was 2.5 fold. The fold surface receptor density against α1B-1β1-3 in assay [6] amounted to 10 fold. For the same substance, in assay [7], the fold surface receptor density against α1B-2β1-2 was 9 fold.

“ω-Aga-IVa (from UniProt P30288 1-48) (peptide)”: the block of barium current (whole-cell patch clamp, HEK 293 cells) (% block at 10 nM) in assay [15] came out at 73.
